Results published in the FLAb antibody collection (doi:10.7554/elife.23156).

B1: scFv; the commonest letter at each place (parent)
chain 1: EVKLDETGGGLVQPGRPMKLSCVASGFTFSDYWMNWVRQSPEKGLEWVAQIRNKPYNYETYYSDSVKGRFTISRDDSKSSVYLQMNNLRVEDMGIYYCTGSYYGMDYWGQGTSVTVS
chain 2: DVVMTQTPLSLPVSLGDQASISCRSSQSLVHSNGNTYLRWYLQKPGQSPKVLIYKVSNRFSGVPDRFSGSGSGTDFTLKISRVEAEDLGVYFCSQSTHVPWTFGGGTKLEIK

Tests used:
fluorescein = variants of: B1; assay: Kd (Tite-Seq); details: with fluorescein; format: scFv 4-4-20, heavy + light
[1] = variants of: B1; assay: yeast surface expression (ratio to wild type); higher = more expressed; details: format: scFv 4-4-20, heavy + light

Kd (fluorescein) [µM]	Variant	yeast surface expression [1]
≥ 10	chain 1 EVKLDETGGGLVQPGRPMKLSCVASGFPFSDYWMNWPRQSPEKGLEWVAQIRNKPYNYETYYSDSVKGRFTISRDDSKSSVYLQMNNLRVEDMGIYYCTGSYYGMDYWGQGTSVTVS chain 2 DVVMTQTPLSLPVSLGDQASISCRSSQSLVHSNGNTYLRWYLQKPGQSPKVLIYKVSNRFSGVPDRFSGSGSGTDFTLKISRVEAEDLGVYFCSQSTHVPWTFGGGTKLEIK [chain 1 T28P V37P]	1.08
0.021	chain 1 EVKLDETGGGLVQPGRPMKLSCVASGFTFSDYWMNWVRQSPEKGLEWVAQIRNKPYNYETYYSDSVKGRFTISRDDSKSSVYLQMNNLRVEDMGIYYCTGSVYGMDYAGQGTSVTVS chain 2 DVVMTQTPLSLPVSLGDQASISCRSSQSLVHSNGNTYLRWYLQKPGQSPKVLIYKVSNRFSGVPDRFSGSGSGTDFTLKISRVEAEDLGVYFCSQSTHVPWTFGGGTKLEIK [chain 1 Y102V W108A]	0.315
5.66	chain 1 EVKLDETGGGLVQPGRPMKLSCVASGFTFMFYWMNWVRQSPEKGLEWVAQIRNKPYNYETYYSDSVKGRFTISRDDSKSSVYLQMNNLRVEDMGIYYCTGSYYGMDYWGQGTSVTVS chain 2 DVVMTQTPLSLPVSLGDQASISCRSSQSLVHSNGNTYLRWYLQKPGQSPKVLIYKVSNRFSGVPDRFSGSGSGTDFTLKISRVEAEDLGVYFCSQSTHVPWTFGGGTKLEIK [chain 1 S30M D31F]	0.611
≥ 10	chain 1 EVKLDETGGGLVQPGRPMKLSCVASGFTFSDYWMNWVRQSPEKGLEWVAQIRNKPYNYETYYSDSVKGRFTISRDDSKSSVYLQMNNLRVEDMGIYYCTGSYYGRDYWWQGTSVTVS chain 2 DVVMTQTPLSLPVSLGDQASISCRSSQSLVHSNGNTYLRWYLQKPGQSPKVLIYKVSNRFSGVPDRFSGSGSGTDFTLKISRVEAEDLGVYFCSQSTHVPWTFGGGTKLEIK [chain 1 M105R G109W]	0.232
≥ 10	chain 1 EVKLDETGGGLVQPGRPMKLSCVASGFIRSDYWMNWVRQSPEKGLEWVAQIRNKPYNYETYYSDSVKGRFTISRDDSKSSVYLQMNNLRVEDMGIYYCTGSYYGMDYWGQGTSVTVS chain 2 DVVMTQTPLSLPVSLGDQASISCRSSQSLVHSNGNTYLRWYLQKPGQSPKVLIYKVSNRFSGVPDRFSGSGSGTDFTLKISRVEAEDLGVYFCSQSTHVPWTFGGGTKLEIK [chain 1 T28I F29R]	0.695
0.00672	chain 1 EVKLDETGGGLVQPGRPMKLSCVASGFPFSDCWMNWVRQSPEKGLEWVAQIRNKPYNYETYYSDSVKGRFTISRDDSKSSVYLQMNNLRVEDMGIYYCTGSYYGMDYWGQGTSVTVS chain 2 DVVMTQTPLSLPVSLGDQASISCRSSQSLVHSNGNTYLRWYLQKPGQSPKVLIYKVSNRFSGVPDRFSGSGSGTDFTLKISRVEAEDLGVYFCSQSTHVPWTFGGGTKLEIK [chain 1 T28P Y32C]	0.967
≥ 10	chain 1 EVKLDETGGGLVQPGRPMKLSCVASGFTFSIFWMNWVRQSPEKGLEWVAQIRNKPYNYETYYSDSVKGRFTISRDDSKSSVYLQMNNLRVEDMGIYYCTGSYYGMDYWGQGTSVTVS chain 2 DVVMTQTPLSLPVSLGDQASISCRSSQSLVHSNGNTYLRWYLQKPGQSPKVLIYKVSNRFSGVPDRFSGSGSGTDFTLKISRVEAEDLGVYFCSQSTHVPWTFGGGTKLEIK [chain 1 D31I Y32F]	0.369

More lines, now with the values behind:

Variant	Kd (fluorescein) [µM]	yeast surface expression [1]
chain 1 EVKLDETGGGLVQPGRPMKLSCVASGFTFSDYWMNWVRQSPEKGLEWVAQIRNKPYNYETYYSDSVKGRFTISRDDSKSSVYLQMNNLRVEDMGIYYCTGSYYGFCYWGQGTSVTVS chain 2 DVVMTQTPLSLPVSLGDQASISCRSSQSLVHSNGNTYLRWYLQKPGQSPKVLIYKVSNRFSGVPDRFSGSGSGTDFTLKISRVEAEDLGVYFCSQSTHVPWTFGGGTKLEIK [chain 1 M105F D106C]	≥ 10	1.03
chain 1 EVKLDETGGGLVQPGRPMKLSCVASGFTFSDYWLNVVRQSPEKGLEWVAQIRNKPYNYETYYSDSVKGRFTISRDDSKSSVYLQMNNLRVEDMGIYYCTGSYYGMDYWGQGTSVTVS chain 2 DVVMTQTPLSLPVSLGDQASISCRSSQSLVHSNGNTYLRWYLQKPGQSPKVLIYKVSNRFSGVPDRFSGSGSGTDFTLKISRVEAEDLGVYFCSQSTHVPWTFGGGTKLEIK [chain 1 M34L W36V]	≥ 10	0.558
chain 1 EVKLDETGGGLVQPGRPMKLSCVASGFTFSDCWMNRVRQSPEKGLEWVAQIRNKPYNYETYYSDSVKGRFTISRDDSKSSVYLQMNNLRVEDMGIYYCTGSYYGMDYWGQGTSVTVS chain 2 DVVMTQTPLSLPVSLGDQASISCRSSQSLVHSNGNTYLRWYLQKPGQSPKVLIYKVSNRFSGVPDRFSGSGSGTDFTLKISRVEAEDLGVYFCSQSTHVPWTFGGGTKLEIK [chain 1 Y32C W36R]	≥ 10	0.506
chain 1 EVKLDETGGGLVQPGRPMKLSCVASGFTFSDYWMNWVRQSPEKGLEWVAQIRNKPYNYETYYSDSVKGRFTISRDDSKSSVYLQMNNLRVEDMGIYYCTGSYYGMHDWGQGTSVTVS chain 2 DVVMTQTPLSLPVSLGDQASISCRSSQSLVHSNGNTYLRWYLQKPGQSPKVLIYKVSNRFSGVPDRFSGSGSGTDFTLKISRVEAEDLGVYFCSQSTHVPWTFGGGTKLEIK [chain 1 D106H Y107D]	≥ 10	0.284
chain 1 EVKLDETGGGLVQPGRPMKLSCVASGFTGTDYWMRWVRQSPEKGLEWVAQIRNKPYNYETYYSDSVKGRFTISRDDSKSSVYLQMNNLRVEDMGIYYCTGSYYGMDYWGQGTSVTVS chain 2 DVVMTQTPLSLPVSLGDQASISCRSSQSLVHSNGNTYLRWYLQKPGQSPKVLIYKVSNRFSGVPDRFSGSGSGTDFTLKISRVEAEDLGVYFCSQSTHVPWTFGGGTKLEIK [chain 1 F29G S30T N35R]	≥ 10	0.82
